Reference: patent US20150018409A1, “CHIMERIC POLYPEPTIDES AND THEIR USE” (ADRIACELL S.P.A., priority 2003, published 2015)

Columns and labels:
[1] = tested on: NHEJ mutated cell lines (V3, xrss5, XR-1, HIS P1.13-11); test: Colony formation assay of NHEJ mutated cell lines; type: cell-based, rodent
Description: (§1) Clonogenic assay of CHO cells that were mutated for proteins involved in the NHEJ repair-pathway treated with […]. The cell lines used are AA8 (parental line), V3 (DNA-PCCS^(−/−)), xrss5 (KU80^(−/−)) and XR-1 (XRCC4^(−/−)), HIS P1.13-11 (KU70^(−/−)) and the corresponding parental cell line CHO-K1. Various dilutions of the CHO cells containing the NHEJ mutations as indicated were treated for 24 hours with […] (25 nM, grey bars; 100 nM, black bars) or not treated (white bars); the cells were washed and then grown for 7-10 days, stained with GIEMSA and colonies were counted.
(§2) These cell lines were analysed in the nuclease activity assays with […] in vivo and compared to the parental cell lines as indicated. […] Seven to ten days after addition, cell growth was analysed by staining with GIEMSA-blue and quantification of diverse cell-concentrations. […] In analogy, cell growth was quantified after a single treatment with […] for 12 hours (10 nM, grey bars; 75 nM, black bars; not treated, white bars). […] The multiwell-microtiter-plates (for an example see FIG. 13A) were scanned using the VersaDOC® (BioRad) imaging system and growth was automatically quantified with the software package Quantify One® for the analysis of the microtiter-plates (microtiter-plates scanning software).

XR-1 (XRCC4−/−) cells = details: single addition of SCPVUTAT
Description: as §1, §2

B1: SCPVUTAT: single chain PvuII endonuclease (aa 1-157, GSGG linker, aa 2-157) fused to HIV Tat peptide and six histidine tag; SEQ ID NO:2 (protein, listed as Proteus vulgaris)
chain: MSHPDLNKLLELWPHIQEYQDLALKHGINDIFQDNGGKLLQVLLITGLTVLPGREGNDAVDNAGQEYELKSINIDLTKGFSTHHHMNPVIIAKYRQVPWIFAIYRGIAIEAIYRLEPKDLEFYYDKWERKWYSDGHKDINNPKIPVKYVMEHGTKIYGSGGSHPDLNKLLELWPHIQEYQDLALKHGINDIFQDNGGKLLQVLLITGLTVLPGREGNDAVDNAGQEYELKSINIDLTKGFSTHHHMNPVIIAKYRQVPWIFAIYRGIAIEAIYRLEPKDLEFYYDKWERKWYSDGHKDINNPKIPVKYVMEHGTKIYGSYGRKKRRQRRRGGSHHHHHH
B1 was tested, and the “colony formation, cells with mutants in the DNA-PK incl. catalytic subunit” value ([1]; single addition of SCPVUTAT) was “strong reduction in the colony formation assay”, the colony formation activity ([1]; single treatment, all NHEJ mutated cell lines analysed) was “strongly reduce colony formation activity” and the “sensitivity in clonogenic assay” value (XR-1 (XRCC4−/−) cells) was “hypersensitive to blunt end DSB's”.
